From paper PMC6168492, “Human and mouse albumin bind their respective neonatal Fc receptors differently” (Scientific Reports, 2018)

Assays:
[1] = biological target: T1, wild-type mouse serum albumin with C-terminal GST (mouse, UniProt P07724 25-608); assay: SPR; receptor binding to immobilised albumin at pH 5.5 in the presence of 0.005% Tween-20 instead of 0.05%; conditions: both partners purified
T1 construct: mouse serum albumin; also called MSA WT; WT MSA; source: HEK293E, transiently transfected, purified from supernatant (GSTrap FF); not shown: GST (Schistosoma japonicum), C-terminal, kept
T1 sequence (P07724 25-608): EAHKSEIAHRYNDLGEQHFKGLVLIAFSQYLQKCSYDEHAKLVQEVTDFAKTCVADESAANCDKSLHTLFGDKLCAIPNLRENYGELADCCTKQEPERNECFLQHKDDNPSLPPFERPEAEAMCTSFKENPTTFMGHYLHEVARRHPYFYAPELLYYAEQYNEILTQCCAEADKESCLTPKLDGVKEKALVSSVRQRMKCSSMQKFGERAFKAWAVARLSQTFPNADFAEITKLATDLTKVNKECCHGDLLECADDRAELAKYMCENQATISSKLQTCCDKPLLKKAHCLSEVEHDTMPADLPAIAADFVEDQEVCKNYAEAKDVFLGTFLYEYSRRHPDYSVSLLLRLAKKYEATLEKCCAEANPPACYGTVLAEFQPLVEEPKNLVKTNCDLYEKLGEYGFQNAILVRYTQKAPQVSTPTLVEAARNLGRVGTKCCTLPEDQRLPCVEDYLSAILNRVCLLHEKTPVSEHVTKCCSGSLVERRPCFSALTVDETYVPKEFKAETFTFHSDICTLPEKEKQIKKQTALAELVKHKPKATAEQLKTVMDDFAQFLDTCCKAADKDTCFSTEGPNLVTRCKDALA

[2] = biological target: T1, wild-type mouse serum albumin with …; assay: SPR; Biacore T200; albumin variants amine-coupled on CM5 (~200 or 500 RU); monomeric His-tagged hFcRn or mFcRn injected in serial dilutions; phosphate buffer (177 mM phosphate, 85 mM NaCl, 0.05% Tween 20) pH 5.5, 30 µl/min, 25 °C; 1:1 Langmuir model; conditions: both partners purified

fold change of KD in 0.005% against 0.05% Tween-20 [1]: 1.7 fold | Kd [2]: 547 nM | koff [2]: 0.0164 s⁻¹ | kon [2]: 30000 M⁻¹ s⁻¹
B1: soluble monomeric His-tagged mouse neonatal Fc receptor (mFcRn) (receptor)
chain: SETRPPLMYHLTAVSNPSTGLPSFWATGWLGPQQYLTYNSLRQEADPCGAWMWENQVSWYWEKETTDLKSKEQLFLEALKTLEKILNGTYTLQGLLGCELASDNSSVPTAVFALNGEEFMKFNPRIGNWTGEWPETEIVANLWMKQPDAARKESEFLLNSCPERLLGHLERGRRNLEWKEPPSMRLKARPGNSGSSVLTCAAFSFYPPELKFRFLRNGLASGSGNCSTGPNGDGSFHAWSLLEVKRGDEHHYQCQVEHEGLAQPLTVDLDSSARSS
b2m: IQKTPQIQVYSRHPPENGKPNILNCYVTQFHPPHIEIQMLKNGKKIPKVEMSDMSFSKDWSFYILAHTEFTPTETDTYACRVKHASMAEPKTVYWDRDM
notes: neonatal Fc receptor heavy chain, mouse, soluble form; beta2-microglobulin, non-covalently associated with the heavy chain; Surmised: the His tag sits on the truncated heavy chain; also called mouse FcRn; the mouse receptor
